Experimental data reported in US20240174741A1 (IMMUNOME, published 2024).

Columns and labels:
Test in all cases: CDI HuProt native protein microarray, IL-1 family members
IL-1β = IL-1β (human, UniProt P01584 1-269, limits assumed)
Description: (§1) To confirm specificity to IL-38, several lead candidate antibodies (CD1-M3, CD1-M8, NZB-M8) were analyzed in a High-Spec Cross-reactivity Assay using native HuProt arrays (CDI Laboratories). […] of antibody was incubated overnight in a cold room, washed, and probed with anti-human secondary antibodies. Fluorescence intensity (F635) as an indicator of binding was measured for each spot. CDI software quantified the specificity of the antibody to each spot based on a Z-score. Z-score is defined as [F635−(Average F635 on array)]/(Standard deviation of F635 on array). S-score is defined as the difference between the Z-score of a given protein and the Z-score of the next highest protein.

IL-36Ra = target: T1, IL-36Ra (human, UniProt Q9UBH0 1-155, limits assumed)
T1 sequence (looked up): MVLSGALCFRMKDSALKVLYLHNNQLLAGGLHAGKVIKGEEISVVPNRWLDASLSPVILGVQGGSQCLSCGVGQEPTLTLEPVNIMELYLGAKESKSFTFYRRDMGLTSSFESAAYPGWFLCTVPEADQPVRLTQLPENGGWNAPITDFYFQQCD
Description: as §1

IL-18 = target: T2, IL-18 (human, UniProt Q14116 1-193, limits assumed)
T2 sequence (looked up): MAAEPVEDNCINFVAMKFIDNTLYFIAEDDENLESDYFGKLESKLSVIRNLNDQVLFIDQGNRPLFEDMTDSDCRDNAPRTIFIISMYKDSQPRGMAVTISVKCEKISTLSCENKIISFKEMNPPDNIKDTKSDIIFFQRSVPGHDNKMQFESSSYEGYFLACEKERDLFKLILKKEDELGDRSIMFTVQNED
Description: as §1

IL-1Ra = IL-1Ra (human, UniProt P18510 26-177, limits assumed)
Description: as §1

IL-37 = target: T3, IL-37 (human, UniProt Q9NZH6 1-218, limits assumed)
T3 sequence (looked up): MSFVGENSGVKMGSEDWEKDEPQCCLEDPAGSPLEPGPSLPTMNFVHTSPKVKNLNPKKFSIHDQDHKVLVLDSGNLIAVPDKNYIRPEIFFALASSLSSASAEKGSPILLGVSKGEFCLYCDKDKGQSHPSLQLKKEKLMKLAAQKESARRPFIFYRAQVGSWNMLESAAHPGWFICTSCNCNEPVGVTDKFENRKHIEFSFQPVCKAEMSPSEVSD
Description: as §1

IL-36a = target: T4, IL-36a (human, UniProt Q9UHA7 1-158, limits assumed)
T4 sequence (looked up): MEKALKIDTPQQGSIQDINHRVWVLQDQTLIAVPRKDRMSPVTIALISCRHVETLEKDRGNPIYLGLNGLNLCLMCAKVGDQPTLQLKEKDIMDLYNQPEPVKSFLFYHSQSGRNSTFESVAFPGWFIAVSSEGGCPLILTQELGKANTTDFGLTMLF
Description: as §1

[1] = target: T5, human interleukin-38 (IL-38) (human, UniProt Q8WWZ1 1-152)
T5 construct: The Adipogen protein is called full length; also called IL1F10/IL38; IL1F10
T5 sequence (looked up): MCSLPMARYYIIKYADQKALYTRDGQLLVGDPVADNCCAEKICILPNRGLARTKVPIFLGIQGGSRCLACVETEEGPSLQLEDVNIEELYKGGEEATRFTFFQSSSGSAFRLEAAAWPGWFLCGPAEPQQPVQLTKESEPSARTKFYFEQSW
Description: as §1

IL-36b = target: T6, IL-36b (human, UniProt Q9NZH7 1-164, limits assumed)
T6 sequence (looked up): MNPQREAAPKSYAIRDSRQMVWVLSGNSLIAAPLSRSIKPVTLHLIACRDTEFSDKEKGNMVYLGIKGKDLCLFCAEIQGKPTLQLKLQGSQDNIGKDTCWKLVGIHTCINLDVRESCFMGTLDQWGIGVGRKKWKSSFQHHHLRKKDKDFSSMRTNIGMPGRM
Description: as §1

IL-1α = target: T7, IL-1α (human, UniProt P01583 1-271, limits assumed)
T7 sequence (looked up): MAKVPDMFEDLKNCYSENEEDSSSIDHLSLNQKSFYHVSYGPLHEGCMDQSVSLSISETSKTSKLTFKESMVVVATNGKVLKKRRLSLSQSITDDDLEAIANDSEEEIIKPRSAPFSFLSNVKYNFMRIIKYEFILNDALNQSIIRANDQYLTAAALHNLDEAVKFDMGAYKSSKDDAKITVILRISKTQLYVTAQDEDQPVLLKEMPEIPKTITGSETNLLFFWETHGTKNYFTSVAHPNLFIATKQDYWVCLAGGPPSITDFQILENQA
Description: as §1

IL-36g = target: T8, IL-36g (human, UniProt Q9NZH8 1-169, limits assumed)
T8 sequence (looked up): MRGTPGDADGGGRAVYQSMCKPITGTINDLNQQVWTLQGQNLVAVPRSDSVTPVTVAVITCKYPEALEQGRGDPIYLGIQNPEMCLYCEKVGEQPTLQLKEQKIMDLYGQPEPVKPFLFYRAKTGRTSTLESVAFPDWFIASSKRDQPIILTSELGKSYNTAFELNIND
Description: as §1

IL-33 = target: T9, IL-33 (human, UniProt O95760 1-270, limits assumed)
T9 sequence (looked up): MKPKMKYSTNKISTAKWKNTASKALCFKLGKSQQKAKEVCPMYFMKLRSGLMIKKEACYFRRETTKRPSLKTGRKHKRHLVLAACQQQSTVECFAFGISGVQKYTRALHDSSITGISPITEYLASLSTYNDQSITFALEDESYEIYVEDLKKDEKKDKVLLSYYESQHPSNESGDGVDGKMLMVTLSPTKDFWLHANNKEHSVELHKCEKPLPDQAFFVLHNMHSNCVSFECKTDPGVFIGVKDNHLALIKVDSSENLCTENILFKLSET
Description: as §1

IL-1Ra, sequence (P18510 26-177 limits assumed): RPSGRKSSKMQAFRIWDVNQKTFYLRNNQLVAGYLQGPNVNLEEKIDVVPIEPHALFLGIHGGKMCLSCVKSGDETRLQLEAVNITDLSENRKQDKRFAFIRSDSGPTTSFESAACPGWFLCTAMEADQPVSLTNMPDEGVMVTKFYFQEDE

Z-score (IL-1β): -0.016
Z-score (IL-36Ra): -0.017
Z-score (IL-18): -0.016
Z-score (IL-1Ra): -0.013
Z-score (IL-37): -0.013
Z-score (IL-36a): -0.008
Z-score [1]: 140
Z-score (IL-36b): -0.016
Z-score (IL-1α): -0.013
Z-score (IL-36g): -0.017
Z-score (IL-33): -0.02
B1: CD1-M3 (antibody, V domains shown)
VH: EVQLQQSGPELVKPGASVKIPCKASGYTFTDYNMDWVKQSHGKSLEWIGDINPNNGGTIYNQKFKGKATLTVDKSSSTAYMELRSLTSEDTAVYYCSRPYYGYFAYWGQGTLVTVSA
VL: DVVMTQSPLSLPVSLGDQASISCRSSQSLVHSHENTFLHWYLQKPGQSPKLLIYRVSNRFSGVPDRFSGSGSGTDFTLKISRVEAEDLGVYFCSQSTHVPLTFGAGTKLELK
notes: Mouse monoclonal from a hybridoma of a CD-1 mouse immunized with full length recombinant IL-38
